From article PMC3824023

Target: microtubules polymerised from bovine brain tubulin (bovine) (UniProt Q6B856)
Chain of UniProt Q6B856 (Q6B856 whole entry, looked up): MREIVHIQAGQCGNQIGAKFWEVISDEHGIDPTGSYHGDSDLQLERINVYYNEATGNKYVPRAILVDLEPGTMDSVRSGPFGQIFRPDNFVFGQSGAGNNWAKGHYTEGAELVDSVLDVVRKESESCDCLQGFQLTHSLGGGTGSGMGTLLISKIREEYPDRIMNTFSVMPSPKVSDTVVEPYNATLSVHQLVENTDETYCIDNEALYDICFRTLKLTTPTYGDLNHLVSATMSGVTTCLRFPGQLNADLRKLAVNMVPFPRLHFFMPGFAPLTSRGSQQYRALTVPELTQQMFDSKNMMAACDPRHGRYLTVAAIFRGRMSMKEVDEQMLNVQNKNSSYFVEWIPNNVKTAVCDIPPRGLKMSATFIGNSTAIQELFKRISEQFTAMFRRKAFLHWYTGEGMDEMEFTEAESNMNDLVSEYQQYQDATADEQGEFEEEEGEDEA

K (0.5, MT) of MT-stimulated ATPase, KIF17M-490 alone: 1.3 µM
K (0.5, MT) of MT-stimulated ATPase, KIF17M-490 with EB1 (2x molar ratio): 0.7 µM
K (0.5, MT) of MT-stimulated ATPase, KIF17M-490 with equimolar KIF17-tail: 0.4 µM
B1: KIF17M-490 (C-terminally truncated KIF17, amino acids 1-490: motor, neck and first coiled-coil domains) (domain or fragment)
chain: MASEAVKVVVRCRPMNQRERELRCQPVVTVDCARAQCCIQNPGAADEPPKQFTFDGAYHVDHVTEQIYNEIAYPLVEGVTEGYNGTIFAYGQTGSGKSFTMQGLPDPPSQRGIIPRAFEHVFESVQCAENTKFLVRASYLEIYNEDVRDLLGADTKQKLELKEHPEKGVYVKGLSMHTVHSVAQCEHIMETGWKNRSVGYTLMNKDSSRSHSIFTISIEMSAVDERGKDHLRAGKLNLVDLAGSERQSKTGATGERLKEATKINLSLSALGNVISALVDGRCKHVPYRDSKLTRLLQDSLGGNTKTLMVACLSPADNNYDETLSTLRYANRAKNIRNKPRINEDPKDALLREYQEEIKKLKAILTQQMSPSSLSALLSRQVPPDPVQVEEKLLPQPVIQHDVEAEKQLIREEYEERLARLKADYKAEQESRARLEEDITAMRNSYDVRLSTLEENLRKETEAVLQVGVLYKAEVMSRAEFASSAEYPPAF
